Test results published in paper doi:10.1101/2023.06.06.543969 (2023).
Read-outs that look alike come from different tables or passages of the source.

How the values were obtained:
Assay in all cases: BLI
[1] = target: T1, influenza hemagglutinin (HA) from H1N1 A/California/07/2009 (influenza A virus H1N1 …)
[2] = target: His-tagged HIV Env MPER peptide (HIV)
[3] = target: T2, biotinylated SARS-CoV-2 fusion peptide (SARS-CoV-2, biotin on the N-terminus)
T2 peptide: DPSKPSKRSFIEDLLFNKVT

[4] = target: T3, biotinylated αTSR domain of P. falciparum circumsporozoite protein (P. falciparum, biotinylated)
T3 chain: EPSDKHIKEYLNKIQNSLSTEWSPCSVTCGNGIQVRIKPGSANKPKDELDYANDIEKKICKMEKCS

[5] = target: T1, influenza hemagglutinin (HA) from H1N1 …; remark: listed apart in the source
[6] = target: His6-tagged SARS-CoV-2 receptor-binding domain (SARS-CoV-2, UniProt P0DTC2)
[7] = target: HCV (isolate H77) E2 domain (HCV (isolate H77))

B1: 5J8 Fab (WT) (Fab, V domains shown)
VH: EVQLVESGPGLVKPSDILSLTCAVSGYSISSNYYWGWIRQPPGKGLEWIGSIYHSGSTYYKPSLESRLGISVDTSKNQFSLKLSFVSAADTAVYYCARHVRSGYPDTAYYFDKWGQGTLVTVSS
VL: SYVLTQPPSVSVAPGETARISCGGNNIGTKVLHWYQQTPGQAPVLVVYDDSDRPSGIPERFSGSNSGNTATLTISRVEVGDEADYYCQVWDISTDQAVFGGGTKLTVL
B1 showed a Kd [1] of 4 nM.

B2: 4E10 Fab (WT) (Fab, V domains shown)
VH: QVQLVQSGAEVKRPGSSVTVSCKASGGSFSTYALSWVRQAPGRGLEWMGGVIPLLTITNYAPRFQGRITITADRSTSTAYLELNSLRPEDTAVYYCAREGTTGWGWLGKPIGAFAHWGQGTLVTVSS
VL: EIVLTQSPGTQSLSPGERATLSCRASQSVGNNKLAWYQQRPGQAPRLLIYGASSRPSGVADRFSGSGSGTDFTLTISRLEPEDFAVYYCQQYGQSLSTFGQGTKVEVK
B2 was tested, and the Kd [2] was 9.1 nM.

B3: COV44–62 Fab (WT) (Fab, V domains shown)
VH: QMQLMQSGAEVKKPGASVTVSCKASGDTFSDYRIHWVRQAPGQGLEWMGRMNPKSGDTNFAQKFQGRVTMTRDMSINTAYMTLSGLTFDDTALYYCASLLIVGGFDPLDDFEVWGQGTMVTISS
VL: QSALTQPPSASGSPGQSVTISCSGTSSDVGGYNFVSWYQHHPGKAPKILIYEVTKRPSGVPDRFSGSKSGNTASLTVSGLQAEDEADYYCSSYGGTNNLLFGGGTKLTVL
With B3 the Kd [3] was 26 nM.

B4: Fab234 (WT) (Fab, V domains shown)
VH: EVQLVESGGGLVKPGGSLRLSCAASGFNFSTHIMNWVRQAPGKGLEWVSSISSSGTYIYYADSMKGRFTISRDNPKNSLYLQMNSLRAEDTAVYYCARARGFIQFHYYMDVWGKGTTVAVSS
VL: SYVLTQPPSVSVAPGKTARITCGGNNIGSKSVHWHQQRPGQAPVLVVYDDKIRPSGIPERFSGSNSGNTATLIISRVEAGDEADYYCQVWHSSSDPVVFGGGTKLTVL
B4 showed a Kd [4] of 0.2 nM.

B5: 3E1 Fab (WT) (Fab, V domains shown)
VH: QVQLQESGPGLVKPSETLSLTCSVSGASISSYYWIWIRQPAGKGLEWIGRFYTSGSPNYNPSLRSRVTMSVDTSKNQFSLKLTSVTAADTAVYYCAREEHITFGGVIVRYWGQGTLVTVSP
VL: DIQMTQSPATLSASVGDRVSITCRASQSISSWLAWYQQKPGKAPKLLIYKASSLESGVPSRFSGSGSGSEFTLTISSLQPDDFAIYYCQQYNSYPWTFGQGTKVEIK
For B5, the Kd [5] was 6.9 nM.

B6: GAR12 Fab (WT) (Fab, V domains shown)
VH: EVQLVQSGGGLVQPGGSLRLSCAASGFTFSSYAMSWVRQAPGKGLEWVLSISGSGGSTYYADSVKGRFTISIDNSKKTVYLQMNSLRAEDTAVYYCAKSGEQQLVQAEYFHHWGQGTLVTVSS
VL: DIQMTQSPSTLSASVGDRVTITCRASQSIGRWLAWYQQKPGKAPKLLIYDASSLESGVPSRFSGSGFGTEFTLTISSLQPDDFATYYCQQCDSLLTFGGGTKLEIK
B6 was tested, and the Kd [6] was 3.5 nM.

B7: GAR12 Fab VL D50K (Fab, V domains shown)
VH: EVQLVQSGGGLVQPGGSLRLSCAASGFTFSSYAMSWVRQAPGKGLEWVLSISGSGGSTYYADSVKGRFTISIDNSKKTVYLQMNSLRAEDTAVYYCAKSGEQQLVQAEYFHHWGQGTLVTVSS
VL: DIQMTQSPSTLSASVGDRVTITCRASQSIGRWLAWYQQKPGKAPKLLIYKASSLESGVPSRFSGSGFGTEFTLTISSLQPDDFATYYCQQCDSLLTFGGGTKLEIK
Binder B7 has a Kd [6] of 153 nM.

B8: HC84.26.5D Fab (WT) (Fab, V domains shown)
VH: VQPVQSGAEVKKPGSSVKVSCEASGGTHSNYVITWVRQAPGQGLEWMGGFIPDFRTAMYAQGFQGRVTITADESTSLAYMELTNLRSEDTAVYYCARGPLSRGYYDYWGPGTLVTVSS
VL: YVLTQPPSVSVAPGQTASITCSGDKLGDKYVSWYQQRPGQSPVLVLYQDSKRPSGIPERFSGSNSGNTATLTISGTQAMDEADYYCQAWDSSALVFGGGTKLTVL
Work on B8 yielded a Kd [7] of 0.9 nM.
